The target in this test is Gal80p (Saccharomyces cerevisiae) (UniProt P04387). In words: cell-based or functional assay.
Chain of UniProt P04387 (P04387 whole entry): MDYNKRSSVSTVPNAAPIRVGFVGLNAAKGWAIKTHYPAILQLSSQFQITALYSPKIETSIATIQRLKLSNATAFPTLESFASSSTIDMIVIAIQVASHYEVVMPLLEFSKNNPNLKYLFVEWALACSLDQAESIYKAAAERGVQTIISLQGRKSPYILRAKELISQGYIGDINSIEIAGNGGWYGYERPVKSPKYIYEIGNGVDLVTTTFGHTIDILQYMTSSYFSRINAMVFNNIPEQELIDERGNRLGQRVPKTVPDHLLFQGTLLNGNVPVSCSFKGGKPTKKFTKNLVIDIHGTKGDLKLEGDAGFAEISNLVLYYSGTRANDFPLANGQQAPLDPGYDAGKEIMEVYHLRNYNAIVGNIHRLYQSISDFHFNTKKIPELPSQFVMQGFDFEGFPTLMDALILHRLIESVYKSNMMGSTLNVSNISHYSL

Consider “Gal3p^MC (metabolic coordinator) (from UniProt P13045 1-520)”, for which the GAL1p-EGFP fluorescence during growth on galactose in strain SFS6 was more than 5 fold.

The values are drawn from patent publication US20250340602A1.
